In US11666658B2, “Rifamycin analogs and antibody-drug conjugates thereof” (Regeneron Pharmaceuticals, Inc., priority 2018, dated 2023):

Tests used:
[1] = biological target: T1, mouse MSR1 extracellular domain (His9-mMSR1) (Mus musculus, UniProt P30204); test: OCTET bio-layer interferometry binding kinetics, 25° C.; conditions: antibody-capture format
T1 construct: mouse MSR1 extracellular domain expressed with a N-terminal nonahistidine tag; purchased R&D Systems 1797-MS
T1 sequence (P30204 79-458 limits assumed): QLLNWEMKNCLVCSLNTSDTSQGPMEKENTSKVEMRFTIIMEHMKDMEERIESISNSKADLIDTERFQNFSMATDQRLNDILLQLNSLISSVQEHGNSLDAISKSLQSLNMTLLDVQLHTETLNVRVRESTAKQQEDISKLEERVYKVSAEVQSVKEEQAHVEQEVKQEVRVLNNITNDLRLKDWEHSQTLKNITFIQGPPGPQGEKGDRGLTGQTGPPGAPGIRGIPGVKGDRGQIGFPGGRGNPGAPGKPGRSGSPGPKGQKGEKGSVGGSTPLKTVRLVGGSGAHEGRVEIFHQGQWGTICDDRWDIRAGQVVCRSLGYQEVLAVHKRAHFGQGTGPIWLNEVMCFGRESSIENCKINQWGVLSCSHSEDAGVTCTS
Procedure: Binding affinities and kinetic constants of human anti-MSR1 antibodies for different MSR1 reagents were determined using a real time, label-free bio-layer interferometry assay on an OCTET® HTX biosensor platform (Pall FortéBio Corp., Menlo Park, Calif.). The experiment was performed at 25° C. in 10 mM HEPES, 150 mM NaCl, 3 mM EDTA, 0.05% v/v Surfactant Tween-20, and 1 mg/mL BSA, pH7.4 (HBS-EBT) buffer with the plate shaking at the speed of 1000 rpm. […] The binding of different MSR1 reagents to the captured anti-MSR1 monoclonal antibody was measured for 4 minutes and the dissociation of monoclonal antibody bound MSR1 reagent was monitored for 8-10 minutes in HBS-EBT buffer.
The association rate (ka) and dissociation rate (kd) were determined by fitting the real-time binding sensorgrams to a 1:1 binding model with mass transport limitation using Scrubber 2.0 c curve-fitting software. Binding dissociation equilibrium constant (KD) and dissociative half-life (t½) were calculated from the kinetic rates as: […]

[2] = biological target: T2, endogenously expressed human MSR1 on PMA-treated THP-1 cells (Homo sapiens, UniProt P21757); test: Electrochemiluminescence (ECL) antibody binding assay on cells
T2 construct: endogenously expressed human MSR1; endogenous in cells; host or cells: THP-1 cells treated with 200 nM PMA
T2 sequence (P21757 1-451): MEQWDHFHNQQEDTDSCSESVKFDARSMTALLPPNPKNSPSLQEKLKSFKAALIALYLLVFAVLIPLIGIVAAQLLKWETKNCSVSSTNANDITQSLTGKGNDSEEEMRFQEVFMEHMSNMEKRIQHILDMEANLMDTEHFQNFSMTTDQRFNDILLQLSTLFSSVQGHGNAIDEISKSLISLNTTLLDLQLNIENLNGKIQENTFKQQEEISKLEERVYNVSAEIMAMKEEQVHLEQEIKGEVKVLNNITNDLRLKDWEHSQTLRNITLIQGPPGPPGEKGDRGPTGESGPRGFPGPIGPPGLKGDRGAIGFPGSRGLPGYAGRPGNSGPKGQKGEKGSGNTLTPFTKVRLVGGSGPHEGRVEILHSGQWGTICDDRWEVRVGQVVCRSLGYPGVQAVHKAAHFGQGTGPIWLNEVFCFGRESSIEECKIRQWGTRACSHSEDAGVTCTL
Procedure: (§1) The ability of anti-MSR1 monoclonal antibodies to bind to human or monkey MSR1 expressing cells was determined using electrochemiluminescence (ECL) based detection.
(§2) Two cell lines overexpressing either human or monkey MSR1 were generated. To generate the human MSR1 overexpressing cell line, human embryonic kidney (HEK) 293 cells were engineered by transduction with hygromycin resistant lentiviral vector encoding full length human MSR1 (hMSR1, amino acids M1-L451 of accession number NP_619729.1) with a C-terminal Myc tag. The resulting cell line is referred to as HEK293.Myc.hMSR1. Similarly, to generate the monkey MSR1 overexpressing cell line, HEK293 cells were engineered by transfection with the geneticin resistant expression plasmid encoding full length monkey MSR1 (Macaca fascicularis, mfMSR1, amino acids M1-L451 of accession number XP_005562705.1). The resulting cell line is referred to as HEK293.mfMSR1 cells. To measure the ability of antibodies to bind to endogenously expressed human MSR1, THP-1 human monocytic cells were treated with 200 nM of phorbol 12-myristate 13-acetate (PMA; Sigma, Cat #P8139) for 72 hours to induce high MSR1 expression prior to antibody binding.
(§3) Luminescence intensity, measured in relative light units (RLU), was recorded to indicate the binding intensity of each antibody at the range of concentrations.

parental HEK293 cells = test: Electrochemiluminescence (ECL) antibody binding assay on cells, non-specific binding control; set-up: species or system human
Procedure: as §1, §2, §3

B1: H1H21234N-N297Q: "An anti-MSR1 antibody H1H21234N containing a N297Q mutation, which eliminates N-linked glycosylation of the Fc at this site" (antibody, V domains shown)
VH: QVQLQESGPGLVKPSETLSLTCTVTGGSISRNYWSWIRQPPGKGLEWIGYIYYSGSIDYNPSLKSRVTISVDTSKNQFSLKLSSMTAADTAVYYCARDRWNWKYGMDVWGQGTTVIVSS
VL: EIVLTQSPGTLSLSPGERATLSCRASQTVRNNYLAWYHQKPGQAPRLLIYGASSRATGIPDRFSGSGSGTDFTLTISRLEPEDFTVYYCHQYGNSPWTFGQGTKMEIKR
For B1, the kd ([1]; analyte His9-mMSR1, * = no dissociation observed, kd manually fixed at 5.00E−05) was 5.00E−05* s^−1, the ka ([1]; analyte His9-mMSR1, NB = no binding, IC = inconclusive) was 38200 M⁻¹ s⁻¹ and the “Ratio of 11 nM Antibody Binding Signal (RLU) to isotype control, PMA-treated THP-1” value [2] was 25. The “Ratio of 11 nM Antibody Binding Signal (RLU) to isotype control, HEK293” value (parental HEK293 cells) was 9.
